Measured values: US20200199241A1 (Chugai, published 2020)

Target: T1, soluble human FcRn complexed with β2-microglobulin (human, UniProt P61769 21-119, limits assumed)
T1 construct: also called hFcRn
Assay: Biacore SPR, pH 7.0;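 also: test antibodies captured on a Protein L chip with human FcRn flowed over as analyte, KD obtained as the ratio of dissociation to association rate constants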

Kd	Binder
179 nM	IgG1-F1312 (antibody, EU numbering; copies: 2 + 2) heavy: QVQLQESGPGLVKPSETLSLTCAVSGHSISHDHAWSWVRQPPGEGLEWIGFISYSGITNYNPSLQGRVTISRDNSKNTLYLQMNSLRAEDTAVYYCARSLARTTAMDYWGEGTLVTVSSASTKGPSVFPLAPSSKSTSGGTAALGCLVKDYFPEPVTVSWNSGALTSGVHTFPAVLQSSGLYSLSSVVTVPSSSLGTQTYICNVNHKPSNTKVDKKVEPKSCDKTHTCPPCPAPELRGGPKVFLFPPKPKDTLYISRTPEVTCVVVDVSHEDPEVKFNWYVDGVEVHNAKTKPREEQYNSTYRVVSVLTVLHQDWLNGKEYKCKVSNKALPAPIEKTISKAKGQPREPQVYTLPPSRDELTKNQVSLTCLVKGFYPSDIAVEWESNGQPENNYKTTPPVLDSDGSFFLYSKLTVDKSRWQQGNLFLCSVMHEALDYHVTQKSLSLSP light: not shown
10.9 nM	IgG1-F1326 (antibody, copies: 2 + 2) heavy: QVQLQESGPGLVKPSETLSLTCAVSGHSISHDHAWSWVRQPPGEGLEWIGFISYSGITNYNPSLQGRVTISRDNSKNTLYLQMNSLRAEDTAVYYCARSLARTTAMDYWGEGTLVTVSSASTKGPSVFPLAPSSKSTSGGTAALGCLVKDYFPEPVTVSWNSGALTSGVHTFPAVLQSSGLYSLSSVVTVPSSSLGTQTYICNVNHKPSNTKVDKKVEPKSCDKTHTCPPCPAPEAAGGPSVFLFPPKPKDVLYISRTPEVTCVVVDVSHEDPEVKFNWYVDGVEVHNAKTKPREEQYNSTYRVVSVLQPLHADWLNGKEYKCKVSNKALPAPIEKTISKAKGQPREPQVYTLPPSRDELTKNQVSLTCLVKGFYPSDIAVEWESNGQPENNYKTTPPVLDSDGSFFLYSKLTVDKSRWQQGNVFSCSVMHEALHYHVTQKSLSLSP light: not shown
267 nM	IgG1-F1319 (antibody, EU numbering; copies: 2 + 2) heavy: QVQLQESGPGLVKPSETLSLTCAVSGHSISHDHAWSWVRQPPGEGLEWIGFISYSGITNYNPSLQGRVTISRDNSKNTLYLQMNSLRAEDTAVYYCARSLARTTAMDYWGEGTLVTVSSASTKGPSVFPLAPSSKSTSGGTAALGCLVKDYFPEPVTVSWNSGALTSGVHTFPAVLQSSGLYSLSSVVTVPSSSLGTQTYICNVNHKPSNTKVDKKVEPKSCDKTHTCPPCPAPELLGGPSVFLFPPKPKDTLYISRTPEVTCVVVDVSHEDPEVKFNWYVDGVEVHNAKTKPREEQYNSTYRVVSVLTVLHQDWLNGKEYKCKVSNKAYPAPIEKTISKAKGQPREPQVYTLPPSRDELTKNQVSLTCLVKGFYPSDIAVEWESNGQPENNYKTTPPVLDSDGSFFLYSKLTVDKSRWQQGNVFSCSVMHEALHYHYTQKSLSLSP light: not shown
227 nM	IgG1-F1314 (antibody, EU numbering; copies: 2 + 2) heavy: QVQLQESGPGLVKPSETLSLTCAVSGHSISHDHAWSWVRQPPGEGLEWIGFISYSGITNYNPSLQGRVTISRDNSKNTLYLQMNSLRAEDTAVYYCARSLARTTAMDYWGEGTLVTVSSASTKGPSVFPLAPSSKSTSGGTAALGCLVKDYFPEPVTVSWNSGALTSGVHTFPAVLQSSGLYSLSSVVTVPSSSLGTQTYICNVNHKPSNTKVDKKVEPKSCDKTHTCPPCPAPELRGGPKVFLFPPKPKDTLYISRTPEVTCVVVDVSHEDPEVKFNWYVDGVEVHNAKTKPREEQYNSTYRVVSVLTVLHQDWLNGKEYKCKVSNKALPAPIEKTISKAKGQPREPQVYTLPPSRDELTKNQVSLTCLVKGFYPSDIAVEWESNGQPENNYKTTPPVLDSDGSFFLYSKLTVDKSRWQQGNVFSCSVMHEALDYHVTLKLLSLSP light: not shown
160 nM	IgG1-F1322 (antibody, EU numbering; copies: 2 + 2) heavy: QVQLQESGPGLVKPSETLSLTCAVSGHSISHDHAWSWVRQPPGEGLEWIGFISYSGITNYNPSLQGRVTISRDNSKNTLYLQMNSLRAEDTAVYYCARSLARTTAMDYWGEGTLVTVSSASTKGPSVFPLAPSSKSTSGGTAALGCLVKDYFPEPVTVSWNSGALTSGVHTFPAVLQSSGLYSLSSVVTVPSSSLGTQTYICNVNHKPSNTKVDKKVEPKSCDKTHTCPPCPAPELRGGPKVFLFPPKPKDTLYITRTPEVTCVVVDVSHEDPEVKFNWYVDGVEVHNAKTKPREEQYNSTYRVVSVLTVLHQDWLNGKEYKCKVSNKALPAPIEKTISKAKGQPREPQVYTLPPSRDELTKNQVSLTCLVKGFYPSDIAVEWESNGQPENNYKTTPPVLDSDGSFFLYSKLTVDKSRWQQGNVFSCSVMHEALDYHVTRKDLSLSP light: not shown
122 nM	IgG1-F1320 (antibody, EU numbering; copies: 2 + 2) heavy: QVQLQESGPGLVKPSETLSLTCAVSGHSISHDHAWSWVRQPPGEGLEWIGFISYSGITNYNPSLQGRVTISRDNSKNTLYLQMNSLRAEDTAVYYCARSLARTTAMDYWGEGTLVTVSSASTKGPSVFPLAPSSKSTSGGTAALGCLVKDYFPEPVTVSWNSGALTSGVHTFPAVLQSSGLYSLSSVVTVPSSSLGTQTYICNVNHKPSNTKVDKKVEPKSCDKTHTCPPCPAPELRGGPKVFLFPPKPKDTLYITRTPEVTCVVVDVSHEDPEVKFNWYVDGVEVHNAKTKPREEQYNSTYRVVSVLTVLHQDWLNGKEYKCKVSNKALPAPIEKTISKAKGQPREPQVYTLPPSRDELTKNQVSLTCLVKGFYPSDIAVEWESNGQPENNYKTTPPVLDSDGSFFLYSKLTVDKSRWQQGNVFSCSVMHEALHYHVTRKDLSLSP light: not shown
103 nM	IgG1-F1330 (antibody, EU numbering; copies: 2 + 2) heavy: QVQLQESGPGLVKPSETLSLTCAVSGHSISHDHAWSWVRQPPGEGLEWIGFISYSGITNYNPSLQGRVTISRDNSKNTLYLQMNSLRAEDTAVYYCARSLARTTAMDYWGEGTLVTVSSASTKGPSVFPLAPSSKSTSGGTAALGCLVKDYFPEPVTVSWNSGALTSGVHTFPAVLQSSGLYSLSSVVTVPSSSLGTQTYICNVNHKPSNTKVDKKVEPKSCDKTHTCPPCPAPELRRGPKVFLFPPKPKDTLYISREPEVTCVVVDVSHEDPEVKFNWYVDGVEVHNAKTKPREEQYNSTYRVVSVLTVLHQDWLNGKEYKCKVSNKALPAPIEKTISKAKGQPREPQVYTLPPSRDELTKNQVSLTCLVKGFYPSDIAVEWESNGQPENNYKTTPPVLDSDGSFFLYSKLTVDKSRWQQGNVFSCSVMHEALHYHVTRKELSLSP light: not shown
149 nM	IgG1-F1323 (antibody, EU numbering; copies: 2 + 2) heavy: QVQLQESGPGLVKPSETLSLTCAVSGHSISHDHAWSWVRQPPGEGLEWIGFISYSGITNYNPSLQGRVTISRDNSKNTLYLQMNSLRAEDTAVYYCARSLARTTAMDYWGEGTLVTVSSASTKGPSVFPLAPSSKSTSGGTAALGCLVKDYFPEPVTVSWNSGALTSGVHTFPAVLQSSGLYSLSSVVTVPSSSLGTQTYICNVNHKPSNTKVDKKVEPKSCDKTHTCPPCPAPELRGGPKVFLFPPKPKDTLYITRTPEVTCVVVDVSHEDPEVKFNWYVDGVEVHNAKTKPREEQYNSTYRVVSVLTVLHQDWLNGKEYKCKVSNKALPAPIEKTISKAKGQPREPQVYTLPPSRDELTKNQVSLTCLVKGFYPSDIAVEWESNGQPENNYKTTPPVLDSDGSFFLYSKLTVDKSRWQQGNVFSCSVMHEALDYHVTKKELSLSP light: not shown
129 nM	IgG1-F1329 (antibody, EU numbering; copies: 2 + 2) heavy: QVQLQESGPGLVKPSETLSLTCAVSGHSISHDHAWSWVRQPPGEGLEWIGFISYSGITNYNPSLQGRVTISRDNSKNTLYLQMNSLRAEDTAVYYCARSLARTTAMDYWGEGTLVTVSSASTKGPSVFPLAPSSKSTSGGTAALGCLVKDYFPEPVTVSWNSGALTSGVHTFPAVLQSSGLYSLSSVVTVPSSSLGTQTYICNVNHKPSNTKVDKKVEPKSCDKTHTCPPCPAPELRRGPKVFLFPPKPKDTLYITRTPEVTCVVVDVSHEDPEVKFNWYVDGVEVHNAKTKPREEQYNSTYRVVSVLTVLHQDWLNGKEYKCKVSNKALPAPIEKTISKAKGQPREPQVYTLPPSRDELTKNQVSLTCLVKGFYPSDIAVEWESNGQPENNYKTTPPVLDSDGSFFLYSKLTVDKSRWQQGNVFSCSVMHEALHYHVTRKELSLSP light: not shown
177 nM	IgG1-F1313 (antibody, EU numbering; copies: 2 + 2) heavy: QVQLQESGPGLVKPSETLSLTCAVSGHSISHDHAWSWVRQPPGEGLEWIGFISYSGITNYNPSLQGRVTISRDNSKNTLYLQMNSLRAEDTAVYYCARSLARTTAMDYWGEGTLVTVSSASTKGPSVFPLAPSSKSTSGGTAALGCLVKDYFPEPVTVSWNSGALTSGVHTFPAVLQSSGLYSLSSVVTVPSSSLGTQTYICNVNHKPSNTKVDKKVEPKSCDKTHTCPPCPAPELRGGPKVFLFPPKPKDTLYISRTPEVTCVVVDVSHEDPEVKFNWYVDGVEVHNAKTKPREEQYNSTYRVVSVLTVLHQDWLNGKEYKCKVSNKALPAPIEKTISKAKGQPREPQVYTLPPSRDELTKNQVSLTCLVKGFYPSDIAVEWESNGQPENNYKTTPPVLDSDGSFFLYSKLTVDKSRWQQGNVFSCSVMHEALDYHVTAKALSLSP light: not shown
152 nM	IgG1-F1328 (antibody, EU numbering; copies: 2 + 2) heavy: QVQLQESGPGLVKPSETLSLTCAVSGHSISHDHAWSWVRQPPGEGLEWIGFISYSGITNYNPSLQGRVTISRDNSKNTLYLQMNSLRAEDTAVYYCARSLARTTAMDYWGEGTLVTVSSASTKGPSVFPLAPSSKSTSGGTAALGCLVKDYFPEPVTVSWNSGALTSGVHTFPAVLQSSGLYSLSSVVTVPSSSLGTQTYICNVNHKPSNTKVDKKVEPKSCDKTHTCPPCPAPELRRGPKVFLFPPKPKDTLYISRTPEVTCVVVDVSHEDPEVKFNWYVDGVEVHNAKTKPREEQYNSTYRVVSVLTVLHQDWLNGKEYKCKVSNKALPAPIEKTISKAKGQPREPQVYTLPPSRDELTKNQVSLTCLVKGFYPSDIAVEWESNGQPENNYKTTPPVLDSDGSFFLYSKLTVDKSRWQQGNVFSCSVMHEALHYHVTRKELSLSP light: not shown
14.1 nM	IgG1-F1327 (antibody, copies: 2 + 2) heavy: QVQLQESGPGLVKPSETLSLTCAVSGHSISHDHAWSWVRQPPGEGLEWIGFISYSGITNYNPSLQGRVTISRDNSKNTLYLQMNSLRAEDTAVYYCARSLARTTAMDYWGEGTLVTVSSASTKGPSVFPLAPSSKSTSGGTAALGCLVKDYFPEPVTVSWNSGALTSGVHTFPAVLQSSGLYSLSSVVTVPSSSLGTQTYICNVNHKPSNTKVDKKVEPKSCDKTHTCPPCPAPEAAGGPSVFLFPPKPKDVLYISRTPEVTCVVVDVSHEDPEVKFNWYVDGVEVHNAKTKPREEQYASTYRVVSVLQPLHADWLNGKEYKCKVSNKALPAPIEKTISKAKGQPREPQVYTLPPSRDELTKNQVSLTCLVKGFYPSDIAVEWESNGQPENNYKTTPPVLDSDGSFFLYSKLTVDKSRWQQGNVFSCSVMHEALHYHVTQKSLSLSP light: not shown
103 nM	IgG1-F1321 (antibody, EU numbering; copies: 2 + 2) heavy: QVQLQESGPGLVKPSETLSLTCAVSGHSISHDHAWSWVRQPPGEGLEWIGFISYSGITNYNPSLQGRVTISRDNSKNTLYLQMNSLRAEDTAVYYCARSLARTTAMDYWGEGTLVTVSSASTKGPSVFPLAPSSKSTSGGTAALGCLVKDYFPEPVTVSWNSGALTSGVHTFPAVLQSSGLYSLSSVVTVPSSSLGTQTYICNVNHKPSNTKVDKKVEPKSCDKTHTCPPCPAPELRGGPKVFLFPPKPKDTLYITRTPEVTCVVVDVSHEDPEVKFNWYVDGVEVHNAKTKPREEQYNSTYRVVSVLTVLHQDWLNGKEYKCKVSNKALPAPIEKTISKAKGQPREPQVYTLPPSRDELTKNQVSLTCLVKGFYPSDIAVEWESNGQPENNYKTTPPVLDSDGSFFLYSKLTVDKSRWQQGNVFSCSVMHEALHYHVTKKELSLSP light: not shown
